Reference: publication PMC11077971 (mBio, 2024)

B1: His6-BC1ΔBCCP (Met1-Glu452) (domain or fragment, Chloroflexus aurantiacus J-10-fl, UniProt A9W9X0 1-452, looked up)
chain: MFRTILVANRGEIALRVMRACRELGLRCVAVYSEADRDAPHVAYADDAFLIGPPSPAESYLNIDAIIRAAKATGAEAIHPGYGFLAENASFVRAVTAAGLIFIGPPAEAMERMGGKTAARREATAAGVPVVPGVLEPVTDAAEVRRLGKEFGYPIAIKAVGGGGGRGLRVVRSPEEVDEAFAAARREAEVAFKNGELYVEKYLDDPRHIEIQVLADRYGNAVALGERDCSVQRRHQKLIEECPSPALTPELRAEMGAAAVRLAKAVGYVSAGTLEFLFQDGRYYFLEMNTRIQVEHTVTEMVYGIDLVAAQIRIAQGEKLWFKQEDVVPRGHAIECRINAEDPLHNFRPALGTIGEYHEPVGFGVRVDSGVRAYYTVPSHYDSLLAKLITWGSDRQEAIARMRRALAEYRIEGVTTIIPFHQAALEHPVFTAGAATVNFIPRHPELFSRAAE
notes: BC domain of biotin carboxylase isoform BC1, Chloroflexus aurantiacus J-10-fl; also called BCCP-truncated BC1 mutant; not shown: His6, N-terminal, kept
B2: BC1ΔBCCP^β-hairpin (BC1 lacking Thr473-Gly486) (enzyme, Chloroflexus aurantiacus J-10-fl, UniProt A9W9X0 1-596, looked up)
chain: MFRTILVANRGEIALRVMRACRELGLRCVAVYSEADRDAPHVAYADDAFLIGPPSPAESYLNIDAIIRAAKATGAEAIHPGYGFLAENASFVRAVTAAGLIFIGPPAEAMERMGGKTAARREATAAGVPVVPGVLEPVTDAAEVRRLGKEFGYPIAIKAVGGGGGRGLRVVRSPEEVDEAFAAARREAEVAFKNGELYVEKYLDDPRHIEIQVLADRYGNAVALGERDCSVQRRHQKLIEECPSPALTPELRAEMGAAAVRLAKAVGYVSAGTLEFLFQDGRYYFLEMNTRIQVEHTVTEMVYGIDLVAAQIRIAQGEKLWFKQEDVVPRGHAIECRINAEDPLHNFRPALGTIGEYHEPVGFGVRVDSGVRAYYTVPSHYDSLLAKLITWGSDRQEAIARMRRALAEYRIEGVTTIIPFHQAALEHPVFTAGAATVNFIPRHPELFSRAAELTPPTAASAGAEPAPEPRRFGDGMNATPVASPSRSAPARRAAPKKTTLAAPVDAVISPIQGRVVAVRVAHGQQVEAGQVLFIVEAMKMENEITAPHSGTIAEVRVEVGTTVEAGAMLATYQNTANNTNGK
notes: biotin carboxylase isoform BC1, Chloroflexus aurantiacus J-10-fl, with the β-hairpin motif Thr473-Gly486 deleted; Vector pET28a-bc1Δbccp^β-hairpin; source: E. coli BL21(DE3), purified
B3: BC1 (Chloroflexus aurantiacus J-10-fl) (protein)
chain: MFRTILVANRGEIALRVMRACRELGLRCVAVYSEADRDAPHVAYADDAFLIGPPSPAESYLNIDAIIRAAKATGAEAIHPGYGFLAENASFVRAVTAAGLIFIGPPAEAMERMGGKTAARREATAAGVPVVPGVLEPVTDAAEVRRLGKEFGYPIAIKAVGGGGGRGLRVVRSPEEVDEAFAAARREAEVAFKNGELYVEKYLDDPRHIEIQVLADRYGNAVALGERDCSVQRRHQKLIEECPSPALTPELRAEMGAAAVRLAKAVGYVSAGTLEFLFQDGRYYFLEMNTRIQVEHTVTEMVYGIDLVAAQIRIAQGEKLWFKQEDVVPRGHAIECRINAEDPLHNFRPALGTIGEYHEPVGFGVRVDSGVRAYYTVPSHYDSLLAKLITWGSDRQEAIARMRRALAEYRIEGVTTIIPFHQAALEHPVFTAGAATVNFIPRHPELFSRAAELTPPTAASAGAEPAPEPRRFTIEVNGRRFGVAVFGDGMNATPVASPSRSAPARRAAPKKTTLAAPVDAVISPIQGRVVAVRVAHGQQVEAGQVLFIVEAMKMENEITAPHSGTIAEVRVEVGTTVEAGAMLATYQNTANNTNGK
B4: Chloroflexus aurantiacus BC1 (His6-tagged, Met1-Lys596), not biotinylated in vitro (enzyme, Chloroflexus aurantiacus J-10-fl, UniProt A9W9X0 1-596, looked up)
chain: MFRTILVANRGEIALRVMRACRELGLRCVAVYSEADRDAPHVAYADDAFLIGPPSPAESYLNIDAIIRAAKATGAEAIHPGYGFLAENASFVRAVTAAGLIFIGPPAEAMERMGGKTAARREATAAGVPVVPGVLEPVTDAAEVRRLGKEFGYPIAIKAVGGGGGRGLRVVRSPEEVDEAFAAARREAEVAFKNGELYVEKYLDDPRHIEIQVLADRYGNAVALGERDCSVQRRHQKLIEECPSPALTPELRAEMGAAAVRLAKAVGYVSAGTLEFLFQDGRYYFLEMNTRIQVEHTVTEMVYGIDLVAAQIRIAQGEKLWFKQEDVVPRGHAIECRINAEDPLHNFRPALGTIGEYHEPVGFGVRVDSGVRAYYTVPSHYDSLLAKLITWGSDRQEAIARMRRALAEYRIEGVTTIIPFHQAALEHPVFTAGAATVNFIPRHPELFSRAAELTPPTAASAGAEPAPEPRRFTIEVNGRRFGVAVFGDGMNATPVASPSRSAPARRAAPKKTTLAAPVDAVISPIQGRVVAVRVAHGQQVEAGQVLFIVEAMKMENEITAPHSGTIAEVRVEVGTTVEAGAMLATYQNTANNTNGK
notes: biotin carboxylase isoform BC1 with fused BC (Met1-Glu452) and BCCP (Ala459-Lys596) domains, Chloroflexus aurantiacus J-10-fl, 596 residues; the pull-down control was; also called His6-BC1; unbiotinylated BC1; source: for the pull-down passed over streptavidin agarose to remove the biotinylated fraction; not shown: His6, N-terminal, kept
B5: Chloroflexus aurantiacus BC2 (His6-tagged, Met1-Val455) (enzyme, Chloroflexus aurantiacus J-10-fl, UniProt A9WKH8 1-455, looked up)
chain: MIRKVLVANRGEIAVRIIRACQELGIRTVVAYSTADRDSLAVRLADEAVCIGPPPAAKSYLNAPALISAALVSGCDAIHPGYGFLSENPYFAEMCADCKLTFIGPPPEPIRLMGDKAIGRETMRKAGVPTVPGSDGEVRSLEEAIDVARQIGYPVLLKPSGGGGGRGMRVAYDEADLQRAFPTARAEAEAAFGNGALLLEKYLTRVRHVEIQVLADQYGHAIHLGERDCSAQRRHQKIVEEAPSPAVTPELRERMGADAVRGIKSIGYVNAGTLEFLLDQDGNYYFIEMNTRIQVEHPVTEQVTGIDLVRWQLLIASGERLTLRQEDIKITRHAIECRINAEDPERDFLPASGEVEFYLPPGGPGVRVDSHLYSGYTPPGTYDSLLAKIITFGDTRDEALNRMRRALNECVITGIKTTIPFQLALIDDPEFRAGRIHTGYVAELLRQWKETLNPV
notes: biotin carboxylase isoform BC2, Chloroflexus aurantiacus J-10-fl, 455 residues; Met1-Val455 is called full-length; also called His6-BC2; biotin carboxylase isoform 2; not shown: His6, N-terminal, kept
B6: His6-BC1ΔBCCP^Core (Met1-Lys510) (domain or fragment, Chloroflexus aurantiacus J-10-fl, UniProt A9W9X0 1-510, looked up)
chain: MFRTILVANRGEIALRVMRACRELGLRCVAVYSEADRDAPHVAYADDAFLIGPPSPAESYLNIDAIIRAAKATGAEAIHPGYGFLAENASFVRAVTAAGLIFIGPPAEAMERMGGKTAARREATAAGVPVVPGVLEPVTDAAEVRRLGKEFGYPIAIKAVGGGGGRGLRVVRSPEEVDEAFAAARREAEVAFKNGELYVEKYLDDPRHIEIQVLADRYGNAVALGERDCSVQRRHQKLIEECPSPALTPELRAEMGAAAVRLAKAVGYVSAGTLEFLFQDGRYYFLEMNTRIQVEHTVTEMVYGIDLVAAQIRIAQGEKLWFKQEDVVPRGHAIECRINAEDPLHNFRPALGTIGEYHEPVGFGVRVDSGVRAYYTVPSHYDSLLAKLITWGSDRQEAIARMRRALAEYRIEGVTTIIPFHQAALEHPVFTAGAATVNFIPRHPELFSRAAELTPPTAASAGAEPAPEPRRFTIEVNGRRFGVAVFGDGMNATPVASPSRSAPARRAAPK
notes: biotin carboxylase isoform BC1 without the BCCP core, Chloroflexus aurantiacus J-10-fl; The cloning of this construct is not described in the methods; source: E. coli BL21(DE3), purified

Legend:
[1] = target: T1, ACC complex (biotinylated BC1 with CTβ-CTα) (Chloroflexus aurantiacus, UniProt A9WBQ8+A9WBQ9); test: HPLC and MS detection of malonyl-CoA; format: biochemical; details: 10 mM acetyl-CoA, 40 mM bicarbonate, 1 mM ATP, 5 mM MgCl2, pH 9.0, RT
T1 construct: gene accD; His6-tagged, E. coli BL21(DE3); with Biotin carboxylase (acetyl-CoA carboxylase, biotin carboxylase; fused BC-BCCP)
T1 sequence (A9WBQ8 entry or part of it, one chain of several): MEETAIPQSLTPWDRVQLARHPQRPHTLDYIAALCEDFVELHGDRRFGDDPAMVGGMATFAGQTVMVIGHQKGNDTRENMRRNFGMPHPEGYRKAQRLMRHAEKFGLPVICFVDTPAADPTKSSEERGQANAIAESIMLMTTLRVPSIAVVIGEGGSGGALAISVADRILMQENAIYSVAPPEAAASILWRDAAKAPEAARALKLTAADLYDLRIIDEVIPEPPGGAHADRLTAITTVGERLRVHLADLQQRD
T1 sequence (A9WBQ9 24-305, one chain of several): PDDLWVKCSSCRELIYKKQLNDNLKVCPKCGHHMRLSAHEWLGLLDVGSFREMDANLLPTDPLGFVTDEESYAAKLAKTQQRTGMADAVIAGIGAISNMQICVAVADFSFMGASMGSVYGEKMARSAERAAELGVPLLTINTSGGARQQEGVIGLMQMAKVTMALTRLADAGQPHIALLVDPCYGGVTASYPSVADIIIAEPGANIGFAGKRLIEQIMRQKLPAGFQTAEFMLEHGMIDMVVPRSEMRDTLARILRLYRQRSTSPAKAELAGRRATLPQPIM

E. coli BirA = target: T2, E. coli BirA (Escherichia coli, UniProt P06709); test: HPLC-MS of biotinylated BCCP core; format: biochemical; details: apo-BCCP core (BC1) as acceptor protein, 10 µM biotin, 0.3 mM ATP, 5 mM MgCl2, pH 8.0, 37 °C
T2 construct: Met1-Lys321, N-terminal His6 tag (pET28a), E. coli BL21(DE3)
T2 sequence (P06709 whole entry): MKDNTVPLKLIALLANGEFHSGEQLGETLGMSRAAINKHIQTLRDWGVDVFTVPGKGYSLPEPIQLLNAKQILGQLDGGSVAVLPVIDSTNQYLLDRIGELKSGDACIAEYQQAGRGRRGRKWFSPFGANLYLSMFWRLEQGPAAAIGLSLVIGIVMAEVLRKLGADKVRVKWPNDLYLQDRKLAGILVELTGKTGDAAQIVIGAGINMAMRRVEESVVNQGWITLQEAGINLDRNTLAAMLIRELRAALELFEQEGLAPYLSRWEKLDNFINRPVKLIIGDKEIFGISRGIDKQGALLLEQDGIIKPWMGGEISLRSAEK

[2] = target: the molecule itself; test: AUC + SEC; sedimentation velocity, 42,000 rpm, 20°C, initial A280 ~0.7, Sedfit; gel filtration on a Superdex 200 column
purified protein [3] = substrate: O=C(O)O; test: purified protein; details: apparent Km, 40 mM biotin, 2 mM ATP, 8 mM MgCl2, 100 mM Hepes pH 8.0, 25 °C
purified protein [4] = substrate: O=C(O)CCCC[C@@H]1SC[C@@H]2NC(=O)N[C@@H]21; test: purified protein; details: apparent Km, free biotin as carboxyl acceptor, 40 mM bicarbonate, 2 mM ATP, 8 mM MgCl2, 100 mM Hepes pH 8.0, 25 °C
[5] = target: the molecule itself; test: crystal structure; hanging-drop vapor diffusion at 16°C; BC1 at 6.5 mg/mL, BC2 at 10 mg/mL in 20 mM Tris-HCl pH 8.0, 150 mM NaCl, 2 mM MgCl2; molecular replacement

Molecule	stoichiometry N [2]	Km (purified protein [3]) [mM]	kcat (purified protein [3]) [s⁻¹]	kcat/Km (purified protein [3]) [M⁻¹ s⁻¹]	Km (purified protein [4]) [mM]	kcat (purified protein [4]) [s⁻¹]	kcat/Km (purified protein [4]) [M⁻¹ s⁻¹]	also measured
CC(=O)SCCNC(=O)CCNC(=O)[C@H](O)C(C)(C)COP(=O)(O)OP(=O)(O)OC[C@H]1O[C@@H](n2cnc3c(N)ncnc32)[C@H](O)[C@@H]1OP(=O)(O)O [acetyl-CoA]								HPLC and MS detection of malonyl-CoA [1]: the reconstituted ACC complex is enzymatically active
O=C(O)CCCC[C@@H]1SC[C@@H]2NC(=O)N[C@@H]21 [biotin]								HPLC-MS of biotinylated BCCP core (E. coli BirA): BC1-BCCP domain can be biotinylated by both E. coli and C. aurantiacus BirA
B1	2	7.4 ± 0.3	14.3	1930	17.1 ± 1.2	15.6	920	
B2	2							
B3		4.5 ± 0.1	20.7	4560	11.4 ± 0.2	19.1	1670	
B4								stoichiometry N [5]: 4
B5		6.7 ± 0.9	16.2	2380	14.8 ± 2.2	16.7	1160	stoichiometry N [5]: 2
B6	4							
